Source: the domain aggregation screens of Martell et al. (2025)

Assay: soluble fraction after stress (log2 fold change); higher = more stays soluble; pooled small domains, quantitative proteomics
Conditions: stress: 50 degC
In short: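 The stress applied to every library was 50°C. These custom libraries of small protein domains were pooled and measured at high throughput with quantitative proteomics as the read-out. Aggregation propensity is expressed as the base-two logarithm of the fold change in how much of each protein remains soluble. The higher the value, the more of that protein stays in solution.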

Row | Sequence | soluble fraction (log2)
1 | HMTDQYEVQNLVGLTVREAQEKEGVKDIFEVREVGSEFSAEYDAGLIVRQSPDAGEQRKGEGLVIEVWVSA | 0.0425
2 | HMIDQSVVVQYLSKLTNTPYLKTREITMGEPYMQFERGEIKFQEYVEDIRALLPGGDRIDADRLRDIWMNS | -1.22
3 | HMTLGENLQNLRKEAGLSQEQVAQQLFVSRQTVSKWENNLAEPGVENLKALARLYGVTLDRLVGM | -0.0572
4 | HMSGAKLLAPVTGTLLRYTVAEGTKVSEGQTVIMLESMKMELEINAHKAGVIHFTAAAGAQVAEGDSLAEI | -0.52
5 | HMYLYADIYKKLEEKIKNMEVGEKLPSERAMVQEYGVSRNVLREALVLLSERGLIEIRPGKGSYVTNQQ | -0.436
6 | HMAANKIDEDRNTELLQVIQNKFPDADAATKKSVKEIMKEHDIPNFKNADDIPTAVLEQIVKVLNQ | 0.323
7 | HMEVKVSGHLEAIGGVYHMKLSWIDDAGKRRRKSKSTGLAERGNKKRANDMLIDFMREQEAEIAASGD | -1.02
8 | HMELMKPPGYWQSLENAIYESKKVIKEHGFDTLPSSNKLRELDYHGLSRAISVHHSGFPNFREIMNQELGI | 0.172
9 | HMLDLSEEEQKIVSILEKQGNLQINSLVVEADIPVHKINAILFELEMKGVVRVLALSLIHISEP | 0.0725
10 | HMQQYLDAYDKALAFGIAMNKLPSYENLTLDDKEDVDKLKEIYDGMSNYEKTFVAKDFTDKLDRYVKRIE | -0.0367
11 | HMESIPDELLEAFKQDPAFKQAFYALTAGRQRGYIIHFSQPKQSQTRIGRIEKYKEQIFNGIGLN | -0.643
12 | HMKKAMIISTKRGTPAAELDKIIREFEAKGLSVTMIRGTDYNVFGLVGDTTVIDEKQVRANPYVENVQRV | 0.135
13 | HMNLYENLATHVKNAIRQGVYQPGDRLPSVRRLSEQHRVSQNTAVSAYRLLESHGWLEARPQSGFFARHP | -1.11
14 | HMRISLKAQVYEYLKQAIINGDLKVGEIYSEQYFADKLSISRTPVREAILQLQHENMVEVKANRGIIVK | -0.472
15 | HMIDAAHLEKAILSLPEGARAVFVLIETEGFAHREVAELLGISEGTSKSQLNYAKKRLREILV | -0.311
16 | HMIVSVPNVRGMGESKAAAALQNRGLLVSIDYESSTSASQGEVIRQSISPGTEVTKGSSITIIIAVSPN | -0.0262
17 | HMELDLPLEELGLSTRVLHSLKEEGIESVRALLALNLKDLKNIPGIGERSLEEIKEALEKKGFTLK | -0.0498
18 | HMHDLDALTGLSGEARSKVYEEGSVFVAGEMWSAKSDAVIPAGSSIRVVRREGFILVVEKDS | -1.12
19 | HMYEPPTEDEKRVLSLLATRESIVRSDVDRLLGVSQSTANRILKQMIEKYLISQEGTGKNTKYIK | -0.0391
20 | HMTHPQVEAYLDDLARMLADIDPGERDDILASVREHLDAEIAAGHGSDAVVNATLLRLGPPEQVAAAARTN | -0.0824
21 | HMKAQTVPQFVGMTMTEAEEKASELGITLIEGAVVDSVEPKDTILTQDVDEGTEITGKMEIMVTISS | -0.28
22 | HMNPASVLDGLKITSFSPTRAIVAGPGGSRIVFDNEAVVLGGIEWDVHIQRNGIEFTSQGQTVLLLFDRS | -1.21
23 | HMLERPLKLKSHYVSAINEKVAVQFQAGEERKSIMGTLTEVNQDTIVIDDRGSVTEIPFKSIIRAKTVF | 0.258

Row | Sequence | soluble fraction (log2)
24 | HMVTQVDYGTFLTRIDEGKVKSVEIQDNQIAFTAIDEAGKENIYVTGKVNDPELVDRLLAADIEDFSQVIP | 0.12
25 | HMERPEVVAYRLAYASAESLRPALGLVASPSDLEIDERTNTLIVRAVPSVQERVAELVASLDI | -0.237
26 | HMSSIHQDAKQQLHEYIRTYIQPLMRAGKQVTVWDIIGHVTIRKPKLVQKIGTQQLINMVQDLLE | -0.213
27 | HMGGVSTDKPLNWDADGTSKLTQEQIDYLRSTYDLSDMSKQDYYDLMADLTNMNAISIKDVISQYVK | -0.0536
28 | HMTEEDVVIFSGLSDRDLKMVQTELANSGIKYTLPTSGTVSVPNSEIARAQMVLAMAGIPRS | 0.167
29 | HMAARLMRALIPYAQGGLLAKLHEDGQVLSEEYTGEGIEVKALADEQLFGRLTVQLGEQAVSWQD | 0.16
30 | HMQSAEMTLDREGQPVQVRVELTGNEARITFLSDQEQTREALDAGMAQLRELLEQQGMVLAGVTV | -0.0108
31 | HMKQNNYATKKELNFFVSRLISLLSYRDFFNPIEKKESMINNIEAIFTRSSLTSQELRTLHGIISNLVE | -3.07
32 | HMTKYVEGQKYVFEFRDGTITIGTYLRTGEGNIYIKDLSGEDIYIPKIMIAQIHLATDDNVKGDEFWF | -0.353
33 | HMAVVAPLAGSVARVLVADGDEIEAGQVLLVLEAMKMETEITAPKAGKVGAILVGKGDSVQGGQGLR | -0.051
34 | HMTKEEKEKREKYEKLMKKADELVTAKNHKEAVTVLGQAKAYANPQQTKEIEEKIKAQTAELDKG | 0.239
35 | HMKARLRRVFQIYYGDAYSIMKALKETFPLQTIVHEPRTNSIVVDTPDEETATKIGDVVSAL | -0.392
36 | HMGQEEKDIFLKLINISGIGPKLALNILSGIEASELEEAVRNTNVTRLSMVPGIGQKTALRIIMELSDKLE | -0.432
37 | HMKNENSLLVSRLAEEKIINRAKLVLMEYLKLSEPQAHRYIEKQAMDLQISRAEVAARVLETYE | -0.0477
38 | HMDRDMGSMTDFENVRDAYLTGKVWNVGDLIEANGITGIIIRKGTNYVSYNDGDGKVHKAWLHDITL | -0.886
39 | HMPVRIYEISKKLGLENKEVLATAKSLGIAAAKVPSSSLDKITAEYLEEEILKSHPEVAARLK | 0.329
40 | HMVIGKHSGSHTLVNDLAKRGITLDKEESATLLEMVRKAAVGLHRSISSDELYGLYKDMKSGQDPFEDS | 0.0935
41 | HMTANPHKPEPLQIDTSDITPGVTVIHKAFGNGTVVSVDNNRILIDFDGIEKKFPFPGAFLYGFLQK | 0.132
42 | HMKLNKRQYAYQVIRSRILDGTYVPGQRIIIDQIAKEVNSSHIPVREAIHQLESEQLIDYEPNIGAIVKG | 0.285
43 | HMTHHGHSIKRIRDMLGIKQETLAAELNMTQQAFSKLEQKEQIEDEMLDKIAKILHVSTEALKT | -0.00336
44 | HMQFQVHEIKGKEYYIHVVEKGNTLYAISRMYSVPIETLKEENPRLNTTELTIGDRLLIPLDEVKRKNIE | -0.128
45 | HMKGISRVTMELIIDALKKETEPRTVQWIAEKTGLATQTTYRYLQYMVSEQTVEALNVYGKVVSLKAK | -0.314
46 | HMLEDIDNSIKKEIILEHYDKMLEFHGDYGAIIFRKLLHAYSKGYTGANEFRDLVNQISDKNIMRDLIESF | -1.19

Row | Sequence | soluble fraction (log2)
47 | HMKITIDSVERDETFRLIWGTGWKPKNKIQELAAIQAKKNGLGRMNEVAGLAAWRGIWQQVAEQVAQEVL | -1.04
48 | HMDGVSLLFKLMETLPEQQKTILHLRDVEQLEFAEIAKITNTSQANVRVALSRARKKIKDLLLKQY | -2.17
49 | HMLFQGDTPAENIILEILSKNGTTASDSIIKQSGLSVSDFNQAATMLEIKGLISNNGGNIWSL | 0.0636
50 | HMVPADVQHLRDIVDTMTEKQQLVYKLHVLEGYTFTEIAKLMGTSIPNVKKHYDKAILFIKNNF | -0.909
51 | HMSRPLISNMLRLLNLPPTVQRKVAAGVISAGHARALLGLNDEKEIEKLANRIVAEGLSVRATEEIVAIA | -0.937
52 | HMYSKQRELIMEAVFKNRVHPTAEYVYKLLKKDHPELSLGTVYRNLNYWAENNMLKKINVPGGSDRFDGT | -0.00987
53 | HMATPKRGFRKQLAPLVQSGTITREEAGELSRSSGDATALRTKIGELMKAGKLTRKEAGELYSDAFPENA | 0.153
54 | HMAQTEIIRVTKDIKKGDAITADKFEKVKVGAYNLPGNVVKNADELKGKFAAADLVRGDYILTSKLTDNP | 0.146
55 | HMERLLVSKINGMITEAKVSVEDVVKVVASRGHYPEVKSIDEYPDDFLSRWVVPNFKKIVEMINANKEA | 0.187
56 | HMDYKSNLQEMVQTTKKSVTYELVKEEGPAHDRTFTMNVIVDGIVLGTGTAKSKKEAEQEAAHQALEKKA | -0.0398
57 | HMQKEMDIVLQINGKMRSNLKVSSTANDDEIIKTAIESDAYKKFSLGLRIQKTIIVPNRLINIVLEK | -0.985
58 | HMGIVVDGTMTLEGVAERYGMSVGELARVIGVPPEYSNERLGRLRKSYEFEMDDIRIYIIQKQ | -1.31
59 | HMDEPGAGYKWREDVLLRVMASHGIEESLRDDFVRHAVGFDNDDNMYLKKVEIENAAAAWVAN | -0.377
60 | HMTRPLVILEDVKFPSYNEIVSLTLPDGTRRGGQVLEVSGNKAIVQVFEGTSGIDVKDTHIELTKSS | 0.0245
61 | HMSGSILVQVSATDLNIRKGPGTNYGTTGKYTGKGTFTIVETRSGQGSNAGWGKLKSGAGWISLDYAKR | -1.38
62 | HMSNGFFELKTSQQDELIDLIDSHTNFVRTKIEGELITAFLKLPMDAEEFNKLLFTNGIILSHLVKRK | -0.461
63 | HMARTGSEELVGALATVREPLAPWGQVFVQGALWRARSADGGPVDAGQQVVVRAVEGLTLVVEPRD | 0.00428
64 | HMQELVPGKVFEGTVTEMKNGQVTLGLSDGKTISARMEQGVSLAKGQPMLFEVKSNTGEQIAIRPVVL | 0.169
65 | HMRTITIDDSIAGKRLDEALTLLGAESSRTKVKLLFSSPNGVLVNGEKEKPHYRVEAGDVIQFGELPKK | 0.271
66 | HMYRPLYQQVYDFLVKQIAAGEWGPGESLPSEQALAGRLNVSQGTVRKALDALAADSLIDRRQGKGTYVAE | -0.0221
67 | HMTKMTPNRQLVLSVLQSSGKPLSAYELLDRLREQGTQWQPPTAYRALDYLVEQGLAHYLQSIQKYV | -1.1
68 | HMVVLNQEQIKFIDHYLQVSKVRYVDVRSELTDHIATAVELKMQDEALDFYEAFKAFIAVNKSQLLQRN | -1.45
